This is an account of results in IntAct's records for PubMed 22407295.

Sequences and labels used below:
B1: mRNA-decapping enzyme-like protein (Arabidopsis thaliana (Mouse-ear cress)), Q9SJF3 (parent)
chain: MSQNGKIIPNLDQNSTRLLNLTVLQRIDPYIEEILITAAHVTFYEFNIELSQWSRKDVEGSLFVVKRSTQPRFQFIVMNRRNTDNLVENLLGDFEYEVQGPYLLYRNASQEVNGIWFYNKRECEEVATLFNRILSAYSKVNQKPKASSSKSEFEELEAKPTMAVMDGPLEPSSTARDAPDDPAFVNFFSSTMNLGNTASGSASGPYQSSAIPHQPHQPHQPTIAPPVAAAAPPQIQSPPPLQSSSPLMTLFDNNPEVISSNSNIHTDLVTPSFFGPPRMMAQPHLIPGVSMPTAPPLNPNNASHQQRSYGTPVLQPFPPPTPPPSLAPAPTGPVISRDKVKEALLSLLQEDEFIDKITRTLQNALQQ
partner: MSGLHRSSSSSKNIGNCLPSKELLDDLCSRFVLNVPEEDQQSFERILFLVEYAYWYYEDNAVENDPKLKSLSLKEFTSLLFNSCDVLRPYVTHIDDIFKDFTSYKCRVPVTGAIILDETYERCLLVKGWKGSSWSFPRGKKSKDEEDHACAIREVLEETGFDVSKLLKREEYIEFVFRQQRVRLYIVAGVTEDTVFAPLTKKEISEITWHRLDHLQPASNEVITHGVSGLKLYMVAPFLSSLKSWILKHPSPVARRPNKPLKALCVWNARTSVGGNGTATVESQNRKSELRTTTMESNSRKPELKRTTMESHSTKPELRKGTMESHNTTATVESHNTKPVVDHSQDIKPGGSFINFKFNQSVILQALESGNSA

In this assay the parent is B1. The settings on record: with dcp2_arath DCP2, Q8GW31.
In the case of MSQNGKIIPNLDQNSTRLLNLTVLQRIDPYIEEILITAAHVTFYEFNIELSQWSRKDVEGSLFVVKRSTQPRFQFIVMNRRNTDNLVENLLGDFEYEVQGPYLLYRNASQEVNGIWFYNKRECEEVATLFNRILSAYSKVNQKPKASSSKSEFEELEAKPTMAVMDGPLEPSSTARDAPDDPAFVNFFSSTMNLGNTASGSASGPYQSSAIPHQPHQPHQPTIAPPVAAAAPPQIQDPPPLQSSSPLMTLFDNNPEVISSNSNIHTDLVTPSFFGPPRMMAQPHLIPGVSMPTAPPLNPNNASHQQRSYGTPVLQPFPPPTPPPSLAPAPTGPVISRDKVKEALLSLLQEDEFIDKITRTLQNALQQ [S237D], the “effect of a mutation on the interaction” value is “increasing interaction”.
